The record followed here is US20260109776A1 (Amgen, published 2026).

Where two headings read alike, the source gives them in different places. Bounds are passed on as bounds.

The target in assay [1] is T1, human CD40 on cells (human, UniProt P25942 21-277). The assay can be described thus: cell-based or functional assay.
Target sequence in this assay (P25942 21-277 limits assumed): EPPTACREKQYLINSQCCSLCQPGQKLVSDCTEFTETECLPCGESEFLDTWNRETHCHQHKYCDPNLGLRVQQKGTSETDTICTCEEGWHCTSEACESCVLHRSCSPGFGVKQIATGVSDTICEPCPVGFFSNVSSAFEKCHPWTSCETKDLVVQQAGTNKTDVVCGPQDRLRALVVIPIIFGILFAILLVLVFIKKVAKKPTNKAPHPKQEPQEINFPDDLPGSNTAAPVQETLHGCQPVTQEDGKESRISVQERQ
Assay [2] addresses T2, human TNFR14 (human, UniProt Q92956 39-283).
T2 construct: whole, on cells
T2 sequence (looked up): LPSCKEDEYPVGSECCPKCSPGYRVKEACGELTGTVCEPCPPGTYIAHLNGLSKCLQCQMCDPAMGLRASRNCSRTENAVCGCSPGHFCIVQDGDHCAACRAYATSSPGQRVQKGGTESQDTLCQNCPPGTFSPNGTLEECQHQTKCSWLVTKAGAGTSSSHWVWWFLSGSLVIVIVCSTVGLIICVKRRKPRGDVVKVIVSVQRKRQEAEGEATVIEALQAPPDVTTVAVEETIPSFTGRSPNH
The assay can be described thus: flow cytometry, HEK293 transfectants. How it is done: (§1) The binding affinity of anti-human CD40 antibodies to human and cynomolgus monkey CD40 was measured by Octet assay (Table 3), quantifying association rate (Kon), disassociation rate (Kdis), and equilibrium binding constant (KD). Cross-reactivity of anti-CD40 antibodies to related TNF receptor superfamily (TNFRSF) members was evaluated by expressing human TNFR1, TNFR2, TNFR10, or TNFR14 on HEK293 cells by transient transfection of expression vectors encoding these genes. Binding of indicated anti-human CD40 antibody to these transfected cells was determined by flow cytometry. […] Cross-reactivity of anti-CD40 antibodies to cynomolgus monkey and mouse CD40 was evaluated by expressing cynomolgus monkey or mouse CD40 on HEK293 cells by transient transfection of expression vectors encoding these genes. Binding of indicated anti-human CD40 antibody to cells overexpressing cynomolgus monkey and mouse CD40 was determined by flow cytometry.

In assay [3] the target is T3, human TNFR1 (human, UniProt P19438 30-455).
T3 construct: whole, on cells
T3 sequence (looked up): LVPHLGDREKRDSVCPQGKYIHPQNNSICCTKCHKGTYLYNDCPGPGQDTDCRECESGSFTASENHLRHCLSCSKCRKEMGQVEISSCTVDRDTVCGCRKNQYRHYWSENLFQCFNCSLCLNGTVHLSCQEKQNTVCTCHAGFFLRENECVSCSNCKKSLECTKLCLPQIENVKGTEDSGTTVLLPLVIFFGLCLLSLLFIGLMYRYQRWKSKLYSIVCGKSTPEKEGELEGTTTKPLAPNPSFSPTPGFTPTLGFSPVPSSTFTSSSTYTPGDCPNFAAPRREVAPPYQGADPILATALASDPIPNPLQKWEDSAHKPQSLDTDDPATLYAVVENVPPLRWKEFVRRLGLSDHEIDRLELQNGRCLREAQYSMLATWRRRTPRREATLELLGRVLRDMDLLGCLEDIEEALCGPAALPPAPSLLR
The assay can be described thus: flow cytometry, HEK293 transfectants. How it is done:
as §1

Assay [4] concerns the target T4, human TNFR2 (human, UniProt P20333 23-461).
T4 construct: whole, on cells
T4 sequence (looked up): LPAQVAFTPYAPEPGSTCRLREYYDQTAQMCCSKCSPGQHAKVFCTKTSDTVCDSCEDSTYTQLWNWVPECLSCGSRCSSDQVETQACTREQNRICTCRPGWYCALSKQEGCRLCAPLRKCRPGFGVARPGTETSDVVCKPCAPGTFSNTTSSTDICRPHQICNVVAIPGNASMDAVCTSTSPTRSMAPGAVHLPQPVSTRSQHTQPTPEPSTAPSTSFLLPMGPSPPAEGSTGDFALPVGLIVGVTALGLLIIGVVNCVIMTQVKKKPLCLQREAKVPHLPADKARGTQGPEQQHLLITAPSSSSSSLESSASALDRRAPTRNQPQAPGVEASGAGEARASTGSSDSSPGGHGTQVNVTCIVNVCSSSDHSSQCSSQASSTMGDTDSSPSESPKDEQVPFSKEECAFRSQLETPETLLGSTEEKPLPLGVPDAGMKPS
The assay can be described thus: flow cytometry, HEK293 transfectants. How it is done:
as §1

The target in assay [5] is T1, human CD40 on cells. Briefly: cell-based or functional assay. The source holds these as a separate data set.
Assay [6] deals with T1, human CD40 on cells. The assay can be described thus: flow cytometry, labelled CD40L on CD40-293T cells, antibody at 5 ug/ml. The procedure: (§2) Percent ligand binding inhibition was calculated as [(CD40L binding gMFI in the absence of anti-CD40)−(CD40L binding gMFI in the presence of anti-CD40)]/(CD40L binding gMFI in the absence of anti-CD40). gMFI: geometric mean fluorescent intensity. All anti-CD40 antibodies show minimal effects on the ability of CD40L to bind to the CD40 receptor (Table 7).
(Flow cytometry measures light scatter and fluorescence of single cells or particles in a stream.)
Target sequence in this assay (P25942 21-277 limits assumed): as the sequence (P25942 21-277 limits assumed) above

Assay [7] concerns the target T1, human CD40 on cells. The assay can be described thus: flow cytometry, labelled CD40L on CD40-293T cells, antibody at 2.5 ug/ml. How it is done: as §2
Target sequence in this assay (P25942 21-277 limits assumed): as the sequence (P25942 21-277 limits assumed) above
In assay [8] the target is human CD40 (human, UniProt P25942 21-193, limits assumed). Briefly: Octet. How it is done: as §1
Sequence of human CD40 (P25942 21-193 limits assumed): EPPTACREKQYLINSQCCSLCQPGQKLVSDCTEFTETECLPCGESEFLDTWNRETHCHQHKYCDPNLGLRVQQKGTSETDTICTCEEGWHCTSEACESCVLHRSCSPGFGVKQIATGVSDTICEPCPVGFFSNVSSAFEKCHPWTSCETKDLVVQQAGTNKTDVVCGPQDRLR
A general note: BLI is a label-free optical method that tracks binding on a fibre tip over time.

The target in assay [9] is T5, cynomolgus monkey CD40 (cynomolgus monkey, UniProt P25942 21-193 (human entry), limits assumed).
T5 chain: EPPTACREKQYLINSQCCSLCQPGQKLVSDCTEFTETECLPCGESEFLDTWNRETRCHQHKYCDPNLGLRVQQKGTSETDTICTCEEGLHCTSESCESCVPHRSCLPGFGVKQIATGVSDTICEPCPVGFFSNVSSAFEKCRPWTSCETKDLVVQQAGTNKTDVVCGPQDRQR
The assay can be described thus: Octet. The procedure:
as §1

Assay [10] addresses T1, human CD40 on cells. The assay can be described thus: flow cytometry, labelled CD40L on CD40-293T cells, antibody at 20 ug/ml. How it is done: as §2
Target sequence in this assay (P25942 21-277 limits assumed): as the sequence (P25942 21-277 limits assumed) above
For assay [11], the target named is T6, mouse CD40 on cells (mouse, UniProt P27512 20-289).
T6 construct: whole, on cells; also called mouse CD40 on HEK293 cells; CD40 on mouse B cells
T6 sequence (looked up): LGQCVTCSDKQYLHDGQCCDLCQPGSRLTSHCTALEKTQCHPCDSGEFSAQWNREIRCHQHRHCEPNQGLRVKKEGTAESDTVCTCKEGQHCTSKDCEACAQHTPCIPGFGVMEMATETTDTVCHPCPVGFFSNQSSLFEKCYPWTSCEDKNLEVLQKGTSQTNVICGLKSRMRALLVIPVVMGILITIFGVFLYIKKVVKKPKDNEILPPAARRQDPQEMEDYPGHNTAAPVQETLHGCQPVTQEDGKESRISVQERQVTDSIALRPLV
The assay can be described thus: flow cytometry, HEK293 transfectants.

B1: 35F11 (antibody, IgG4, V domains shown)
VH: QVQLVESGGGVVQPGRSLRLSCAASGFTLSSYGMHWVRQAPGKGLEWVAVIWYDGSNKYYADSVKGRVTISRDNSKNTLYLQMNSLRAEDTAVYYCTRDGRNYVYFDNWGQGTLVTVSS
VL: QSALTQPRSVSGSPGQSVTISCTGTSSDVGGYIFVSWYQQHPGKAPKLMIYDVSKRPSGVPDRFSGSKSVNTASLTISGLQAEDETDYYCCSYAGNYTYVFGTGTKVTVLG
notes: also called 4868-1
Usually Kd stands for the concentration at which binding is half-saturated. As usually defined, the koff is a measure of how fast the partners let go of each other. Broadly, the kon is a measure of how fast the partners come together. On to B1, for which, in [1], the “human B cell proliferation, no crosslinking, % Max Activity” value turned out to be 4.4%; the “human B cell proliferation, no crosslinking, EC50” value is greater than 16.7 nM; the “human B cell proliferation, with protein G crosslinking, % Max Activity” value came out at 120%; the “human B cell proliferation, with protein G crosslinking, EC50” value was found to be 0.3 nM. For the same molecule, the binding result in assay [2] is listed as “no binding”. For the same molecule, in assay [3], the binding result was “no binding”. Besides, in assay [4], the binding result is listed as “no binding”. Further, in assay [5], the “human B cell proliferation, no crosslinking, EC50” value is greater than 16.7 nM; the “human B cell proliferation, no crosslinking, Max Fold Change” value is 1.33 fold; the “human B cell proliferation, with protein G crosslinking, EC50” value worked out at 0.371 nM; the “human B cell proliferation, with protein G crosslinking, Max Fold Change” value is 24.2 fold. For the same molecule, the “Ligand Binding Inhibition (%)” value in [6] was -5%. Moreover, the “Ligand Binding Inhibition (%)” value in [7] was -15%. In assay [8], this molecule registered a Kd of 0.55 nM, a koff of 0.00031 s⁻¹ and a kon of 556000 M⁻¹ s⁻¹. For the same molecule, in [9], the Kd stood at 0.62 nM, the koff worked out at 0.000314 s⁻¹ and the kon stood at 506000 M⁻¹ s⁻¹. The “Ligand Binding Inhibition (%)” value in [10] was determined as 8%. Further, in assay [11], the binding result was “no binding”.

B2: 37A6 (antibody, IgG4, V domains shown)
VH: QVQLVESGGGLVKPGGSLRLSCAASEFTFSDYYMSWIRQAPGKGLEWVSYISRSGDTIYYADSVKGRFTISRDNAKNSLYLQMNGLRAEDTAVYYCARDLAAGATGGLDCWGQGTLVTVSS
VL: SYELTQPPSVSVSPGQTASITCSGERLGNKYICWYQQKPGQSPVLVIYQDFKRPSGIPERFSGSNSGITATLTISGTQAMDEADYYCQAWDSRTVVFGGGTKLTVLG
notes: also called 4865-1
Consider B2, for which, in assay [1], the “human B cell proliferation, no crosslinking, % Max Activity” value was determined as 0.4%; the “human B cell proliferation, no crosslinking, EC50” value is greater than 16.7 nM; the “human B cell proliferation, with protein G crosslinking, % Max Activity” value was determined as 80.9%; the “human B cell proliferation, with protein G crosslinking, EC50” value was found to be 0.3 nM. Besides, the binding result in assay [2] is recorded as “no binding”. The binding result in [3] is “no binding”. Besides, in assay [4], the binding result is reported as “no binding”. Moreover, in assay [5], the “human B cell proliferation, no crosslinking, EC50” value was greater than 16.7 nM; the “human B cell proliferation, no crosslinking, Max Fold Change” value came out at 1.19 fold; the “human B cell proliferation, with protein G crosslinking, EC50” value came to 0.504 nM; the “human B cell proliferation, with protein G crosslinking, Max Fold Change” value amounted to 27.1 fold. Besides, the “Ligand Binding Inhibition (%)” value in assay [6] was 2%. In addition, the “Ligand Binding Inhibition (%)” value in [7] was -19%. Moreover, in assay [8], the Kd came out at 1.1 nM, the koff amounted to 0.000672 s⁻¹ and the kon worked out at 612000 M⁻¹ s⁻¹. In addition, in assay [9], the affinity, expressed as Kd, was 0.73 nM; the koff was 0.000387 s⁻¹; the kon was found to be 531000 M⁻¹ s⁻¹. Besides, the “Ligand Binding Inhibition (%)” value in assay [10] amounted to 12%. For the same molecule, the binding result in [11] was “no binding”.

B3: 39C2 (antibody, IgG4, V domains shown)
VH: QVQLVQSGTEVKKPGASVKVSCKASGYTFPGYYMHWVRQAPGQGLEWMGWINPDSGGTKYTQKFQGRVTLTRDASVSTAYIDLNRLRSDDTAVYYCARERCRTTNCYLDYWGQGSLVTVSS
VL: QSALTQPASVSGSPGQSITISCTGTSSDVGNYNLVSWYQQHPGKAPKLMIYEVNRRPSGVSNRFSGSKSGNTASLTISGLQAEDEAEYYCCSYAGRDTFVVFGGGTKLTVLG
notes: also called 4887-1
For B3, the “human B cell proliferation, no crosslinking, % Max Activity” value in assay [1] was found to be 6.1%. Further, the “human B cell proliferation, no crosslinking, EC50” value in [1] and in [5] was greater than 16.7 nM each time. For the same molecule, the “human B cell proliferation, with protein G crosslinking, % Max Activity” value in assay [1] is 76.6%. Besides, the “human B cell proliferation, with protein G crosslinking, EC50” value in [1] stood at 0.21 nM; in assay [5], 0.529 nM. Also, the binding result in assay [2], in assay [3], in [4] and in assay [11] was “no binding” in each case. Also, the “human B cell proliferation, no crosslinking, Max Fold Change” value in assay [5] came out at 1.24 fold. Moreover, in assay [5], the “human B cell proliferation, with protein G crosslinking, Max Fold Change” value was 23 fold. In addition, the “Ligand Binding Inhibition (%)” value is -6% in assay [6], 7% in [7] and 2% in assay [10]. The results for the dissociation constant Kd in assay [8] and in [9] were 1.02 nM and 0.73 nM, respectively. Besides, the koff in assay [8] stood at 0.000614 s⁻¹; in [9], 0.000376 s⁻¹. The kon in assay [8] worked out at 599000 M⁻¹ s⁻¹; in assay [9] it was 518000 M⁻¹ s⁻¹.
